{"source": "paper PMC5708134", "proteins": {"B1": {"name": "recombinant human DCXR (Homo sapiens) (protein)", "chain": "MELFLAGRRVLVTGAGKGIGRGTVQALHATGARVVAVSRTQADLDSLVRECPGIEPVCVDLGDWEATERALGSVGPVDLLVNNAAVALLQPFLEVTKEAFDRSFEVNLRAVIQVSQIVARGLIARGVPGAIVNVSSQCSQRAVTNHSVYCSTKGALDMLTKVMALELGPHKIRVNAVNPTVVMTSMGQATWSDPHKAKTMLNRIPLGKFAEVEHVVNAILFLLSDRSGMTTGSTLPVEGGFWAC"}}, "substrate": "CC1=CC(=O)c2ccccc2C1=O", "experiment": "Chemical redox cycling by DCXR", "assay_type": "biochemical, human", "conditions": "other: redox cycling; quinone varied; 200 μM NADPH fixed; pH 7.0"}
{"protein": "B1", "values": [{"measurement": "Km", "result": 365.80, "unit": "µM"}, {"measurement": "kcat", "result": 0.022, "unit": "s⁻¹"}, {"measurement": "kcat/Km", "result": 66.7, "unit": "M⁻¹ s⁻¹"}]}
